US9593305B2, “Differentiation of pluripotent stem cells” (Janssen Biotech, Inc., priority 2008, dated 2017)

B1: GDF15: member of the GDF family of proteins (R&D Systems) (protein, UniProt Q99988 195-308, looked up)
Growth/differentiation factor …: ARARNGDHCPLGPGRCCRLHTVRASLEDLGWADWVLSPREVQVTMCIGACPSQFRAANMHAQIKTSLHRLKPDTVPAPCCVPASYNPMVLIQKTDTGVSLQTYDDLLAKDCHCI
B2: GDF-5: member of the GDF family of proteins (DePuy Orthopaedics) (protein, UniProt P43026 382-501, looked up)
Growth/differentiation factor …: APLATRQGKRPSKNLKARCSRKALHVNFKDMGWDDWIIAPLEYEAFHCEGLCEFPLRSHLEPTNHAVIQTLMNSMDPESTPPTCCVPTRLSPISILFIDSANNVVYKQYEDMVVESCGCR
B3: GDF10: member of the GDF family of proteins (R&D Systems) (protein, UniProt P55107 369-478, looked up)
Growth/differentiation factor …: QWDEPRVCSRRYLKVDFADIGWNEWIISPKSFDAYYCAGACEFPMPKIVRPSNHATIQSIVRAVGIIPGIPEPCCVPDKMNSLGVLFLDENRNVVLKVYPNMSVDTCACR
B4: GDF11: member of the GDF family of proteins (PeproTech) (protein, UniProt O95390 299-407, looked up)
Growth/differentiation factor …: NLGLDCDEHSSESRCCRYPLTVDFEAFGWDWIIAPKRYKANYCSGQCEYMFMQKYPHTHLVQQANPRGSAGPCCTPTKMSPINMLYFNDKQQIIYGKIPGMVVDRCGCS
B5: BMP3: growth factor protein, R&D Systems (protein, UniProt P12645 363-472, looked up)
Bone morphogenetic protein 3: QWIEPRNCARRYLKVDFADIGWSEWIISPKSFDAYYCSGACQFPMPKSLKPSNHATIQSIVRAVGVVPGIPEPCCVPEKMSSLSILFFDENKNVVLKVYPNMTVESCACR

What was measured:
Assay type in all cases: cell-based
[1] = system: H1 human embryonic stem cells; test: Definitive endoderm formation with TGF superfamily members, SOX17 and cell number (Example 14); conditions: dose titration with Wnt3a, Compound 34, or both
Method: Clusters were centrifuged at low speed to collect a cell pellet and remove residual dispase. […] All human embryonic stem cell lines were maintained at passage numbers less than 50 and routinely evaluated for normal karyotype and absence of mycoplasma.
Cells were washed again three times with PBS and blocked with 4% chicken serum (Invitrogen; Cat #16110082) in PBS for 30 minutes at room temperature. […] Plates were washed once with PBS and left in 100 μl/well PBS for imaging.

[2] = system: H1 human embryonic stem cells; test: Secondary assay: compound combined with individual growth factors or small molecules, no activin A (Example 5, Table 4); conditions: agent combined with 2.5 μM compound and Wnt3a, no activin A
Method: Clusters of H1 human embryonic stem cells were grown on reduced growth factor […]™ (Invitrogen; Cat #356231)-coated tissue culture plastic. Cells were passaged using collagenase (Invitrogen; Cat #Cat #17104-019) treatment and gentle scraping, washed to remove residual enzyme, and plated with even dispersal at a ratio of 1:1 (surface area) on reduced growth factor […]™-coated 96-well black plates (Packard ViewPlates; PerkinElmer; Cat #6005182) using volumes of 100 μl/well. Cells were allowed to attach as clusters and then recover log phase growth over a 1 to 3 day period, feeding daily with MEF conditioned medium supplemented with 8 ng/ml bFGF (R&D Systems; Cat #233-FB). Plates were maintained at 37° C., 5% CO2 in a humidified box throughout the duration of assay.
Other agents tested were purchased as follows: BMP-7 (Sigma; Cat #B1434), LY294002 (Cayman; Cat 70920), PD98059, U0126, U0124 (EMD Biosciences; Cat #453710), muscimol (Tocris; Cat #0289), biuculline (Tocris; Cat #0130), sodium butyrate (Sigma; Cat #B5887). All growth factors were solubilized in PBS with 0.1% BSA (Sigma; Cat #A7888) and stored frozen at −80° C. Small molecules were solubilized in 100% DMSO (Sigma; Cat #D2650) and stored frozen at −80° C. The compounds were available as 5 mM stocks in 96-well plate format, solubilized in 100% DMSO and stored at −80° C. The compounds of the present invention were further diluted to an intermediate concentration of 0.2 mM in 50 mM HEPES (Invitrogen; Cat #15630-080), 20% DMSO and stored at 4° C. All growth factors and inhibitors were prepared in a deep well, 96-well polypropylene plate, diluted to 5× intermediate stocks in DMEM:F12 base medium at the beginning of assay and stored at 4° C.
A secondary screening assay was conducted, testing in triplicate and feeding on alternate days over the four-day assay timeframe. Assays were initiated by aspirating culture medium from each well followed by three washes in PBS to remove residual growth factors and serum. Test volumes of 80 μl per well were added back containing DMEM:F12 base medium (Invitrogen; Cat #11330-032) supplemented with 0.625% FCS (HyClone; Cat #SH30070.03), 25 ng/ml Wnt3a (R&D Systems), and 3.125 μM compound plus 20 μl 5× stock of growth factor or small molecule to yield a final concentration of 0.5% FCS, 20 ng/ml Wnt3a, and 2.5 μM compound. […] Final assay concentrations of small molecules tested were as follows: muscimol (20 μM), PD98059 (1 μM), LY294002 (2.5 μM), 00124 (1 μM), U0126 (1 μM), sodium butyrate (0.5 mM). Positive control wells (100 μl/well) contained the same base medium supplemented with 0.5% FCS, 20 ng/ml Wnt3a and 100 ng/ml activin A. Negative control wells (100 μl/well) contained the same base medium with 0.5% FCS and 20 ng/ml Wnt3a, omitting activin A.
On day 3, wells were aspirated and fed with 80 μl DMEM:F12 base medium supplemented with 2.5% FCS (HyClone) and 3.125 μM cyclic aniline-pyridinotriazine compound plus 20 μl 5× stock of growth factors or small molecules per well to yield a final concentration of 2% FCS and 2.5 μM compound (omitting Wnt3a) and as denoted on day one for all remaining growth factors or small molecules. Positive control wells (100 μl/well) contained the same base medium supplemented with 2% FCS and 100 ng/ml activin A, omitting Wnt3a. Negative control wells (100 μl/well) contained the same base medium with 2% FCS, omitting both activin A and Wnt3a.
At the conclusion of four-days of culture, assay plates were washed twice with PBS, fixed with 4% paraformaldehyde (Alexis Biochemical; Cat #ALX-350-011) at room temperature for 20 minutes, then washed three times with PBS and permeabilized with 0.5% Triton X-100 (Sigma; Cat #T8760-2) for 20 minutes at room temperature. Cells were washed again three times with PBS and blocked with 4% chicken serum (Invitrogen; Cat #16110082) in PBS for 30 minutes at room temperature.

[3] = system: H1 human embryonic stem cells; test: Definitive endoderm formation with GDF family members, SOX17 and cell number (Example 13); conditions: 100 ng/ml GDF, alone or with Wnt3a, Compound 34 or Compound 56, four days
Method: Stock cultures of human embryonic stem cells (H1 human embryonic stem cell line) were maintained in an undifferentiated, pluripotent state on reduced growth factor […]™ (BD Biosciences; Cat #356231)-coated dishes in MEF conditioned medium with passage on average every four days. Passage was performed by exposing cell cultures to a solution of 1 mg/ml dispase (Invitrogen; Cat #17105-041) for 5 to 7 minutes at 37° C. followed by rinsing the monolayer with MEF conditioned culture medium and gentle scraping to recover cell clusters. Clusters were centrifuged at low speed to collect a cell pellet and remove residual dispase. Cell clusters were split at a 1:3 or 1:4 ratio for routine maintenance culture or a 1:1 ratio for immediate assay. All human ES cell lines were maintained at passage numbers less than 50 and routinely evaluated for normal karyotype and absence of mycoplasma.
Cell clusters were evenly resuspended in MEF conditioned medium supplemented with 8 ng/ml bFGF and seeded onto reduced growth factor […]™-coated 96-well Packard VIEWPLATES (PerkinElmer; Cat #6005182) in volumes of 0.1 ml/well. Daily feeding was conducted by aspirating spent culture medium from each well and replacing with an equal volume of fresh medium. Plates were maintained at 37° C., 5% CO2 throughout the duration of assay.
The assay was initiated by aspirating the culture medium from each well and adding back aliquots (100 μl) of test medium. Test conditions were performed in triplicate over a total four-day assay period, feeding on day 1 and day 3 by aspirating and replacing the medium from each well with fresh test medium. Various members of the GDF family of proteins were obtained for testing as follows: GDF-3 (PeproTech; Cat #120-22); GDF-5 (DePuy Orthopaedics, Inc., a Johnson & Johnson company); GDF-8 (R&D Systems; Cat #788-G8); GDF-10 (R&D Systems; Cat #1543-BP); GDF11 (PeproTech; Cat #120-11); GDF-15 (R&D Systems; Cat #957-GD). On the first day of assay, all wells received an aliquot (80 μl) of basal medium DMEM:F12 medium (Invitrogen; Cat #11330-032) supplemented with 0.5% fetal bovine serum (Hyclone; Cat #SH30070.03). A series of five different control or experimental test samples was created to evaluate activin A or various GDFs in combination with Wnt3a or Compound 34 or Compound 56. These test samples were added in 20 μl aliquots (5× concentrated) to appropriately matched assay wells to yield a final assay volume of 100 μl in each well at the final assay conditions indicated. In the first set of control samples, the following conditions were tested: 1) no additive (i.e. no supplementary growth factor or small molecule); 2) 100 ng/ml activin A (PeproTech; Cat #120-14) in combination with 20 ng/ml Wnt3a (R&D Systems; Cat #1324-WN/CF); 3) 20 ng/ml Wnt3a alone; 4) Compound 34 alone (2.5 μM) without any growth factor or small molecule; 5) Compound 56 alone (2.5 μM) without any growth factor or small molecule. In the second set of test samples, the following conditions were tested in combination with 100 ng/ml GDF3: 1) no additive (i.e. GDF-3 alone); 2) 20 ng/ml Wnt3a; 3) 20 ng/ml Wnt3a with Compound 34 (2.5 μM); 4) Compound 34 (2.5 μM); 5) Compound 56 (2.5 μM); and 6) 20 ng/ml Wnt3a with Compound 56 (2.5 μM). In the third set of test samples, each of the six conditions was combined with 100 ng/ml GDF-5. In the fourth set of test samples, each of the six conditions was combined with 100 ng/ml GDF-8. In the fifth set of test samples, each of the six conditions was combined with 100 ng/ml GDF-10. In the sixth set of test samples, each of the six conditions was combined with 100 ng/ml GDF-11. In the seventh set of test samples, each of the six conditions was combined with 100 ng/ml GDF-15. On the third day of assay, all wells for all test samples, received 100 ng/ml Activin A or 100 ng/ml respective GDF growth factor, without Wnt3a or Compound 34 or Compound 56, diluted into DMEM:F12 medium supplemented with 2% FBS. […]

| Molecule | induction of SOX17 expression compared to the Wnt3a treatment alone [1] | SOX17 expression, GDF growth factor substituting for activin A [3] | also measured |
| --- | --- | --- | --- |
| TGFβ-1: TGF superfamily growth factor, R&D Systems | weak or negligible | – | – |
| BMP-4: member of the BMP family, R&D Systems | weak or negligible | – | cell numbers at the conclusion of assay [1]: significant effect on cell numbers; effect on SOX17 expression [2]: inhibited or had negligible effects on SOX17 expression |
| B1 | – | induced significant levels of SOX17 expression | – |
| B2 | – | induced weak expression of SOX17 | – |
| B3 | – | induced significant levels of SOX17 expression | – |
| B4 | – | induced significant levels of SOX17 expression | – |
| B5 | weak or negligible | – | – |
